# Data as given in IntAct's records for PubMed 23219551.
# B1: DNA ligase 4 (Homo sapiens), P49917 (parent)
# chain: MAASQTSQTVASHVPFADLCSTLERIQKSKGRAEKIRHFREFLDSWRKFHDALHKNHKDVTDSFYPAMRLILPQLERERMAYGIKETMLAKLYIELLNLPRDGKDALKLLNYRTPTGTHGDAGDFAMIAYFVLKPRCLQKGSLTIQQVNDLLDSIASNNSAKRKDLIKKSLLQLITQSSALEQKWLIRMIIKDLKLGVSQQTIFSVFHNDAAELHNVTTDLEKVCRQLHDPSVGLSDISITLFSAFKPMLAAIADIEHIEKDMKHQSFYIETKLDGERMQMHKDGDVYKYFSRNGYNYTDQFGASPTEGSLTPFIHNAFKADIQICILDGEMMAYNPNTQTFMQKGTKFDIKRMVEDSDLQTCYCVFDVLMVNNKKLGHETLRKRYEILSSIFTPIPGRIEIVQKTQAHTKNEVIDALNEAIDKREEGIMVKQPLSIYKPDKRGEGWLKIKPEYVSGLMDELDILIVGGYWGKGSRGGMMSHFLCAVAEKPPPGEKPSVFHTLSRVGSGCTMKELYDLGLKLAKYWKPFHRKAPPSSILCGTEKPEVYIEPCNSVIVQIKAAEIVPSDMYKTGCTLRFPRIEKIRDDKEWHECMTLDDLEQLRGKASGKLASKHLYIGGDDEPQEKKRKAAPKMKKVIGIIEHLKAPNLTNVNKISNIFEDVEFCVMSGTDSQPKPDLENRIAEFGGYIVQNPGPDTYCVIAGSENIRVKNIILSNKHDVVKPAWLLECFKTKSFVPWQPRFMIHMCPSTKEHFAREYDCYGDSYFIDTDLNQLKEVFSGIKNSNEQTPEEMASLIADLEYRYSWDCSPLSMFRRHTVYLDSYAVINDLSTKNEGTRLAIKALELRFHGAKVVSCLAEGVSHVIIGEDHSRVADFKAFRRTFKRKFKILKESWVTDSIDKCELQEENQYLI
# Variants of: B1
# Conditions: with dcr1c_human DCLRE1C
row,Variant,effect of a mutation on the interaction
1,F49A,disrupting interaction strength
2,V14A,decreasing interaction strength
3,D18H,decreasing interaction strength
4,F42A,disrupting interaction strength
5,F42A;F49A,disrupting interaction strength
